From US20260209750, “SYSTEM AND METHOD FOR […] RNA APTAMER” (CRISmers Biotechnologies (Shenzhen) Co., Ltd., published 2026)

Columns and labels:
[1] = biological target: PD-1 extracellular domain, recombinant (UniProt Q15116 Q15116:25-170); assay: ELONA
NSP7-8 complex = NSP7-8 complex (SARS-CoV-2, UniProt P0DTD1;P0DTD1 P0DTD1:3860-3942,P0DTD1:3943-4140); assay: ELONA; conditions: label: biotin
[2] = biological target: T1, SARS-CoV-2 spike RBD (wild type), recombinant (SARS-CoV-2, UniProt P0DTC2 P0DTC2:319-541); assay: EMSA
[3] = biological target: T1, SARS-CoV-2 spike RBD (wild type), …; assay: ELONA

Chain of PD-1 extracellular domain, recombinant (Q15116 25-170, one chain of several): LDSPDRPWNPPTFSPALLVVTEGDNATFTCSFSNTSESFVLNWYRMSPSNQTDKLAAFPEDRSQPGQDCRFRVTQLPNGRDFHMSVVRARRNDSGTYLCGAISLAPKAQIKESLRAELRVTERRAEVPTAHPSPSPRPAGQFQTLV

Row | Binder | binding result [1] | binding result (NSP7-8 complex) | binding result [2] | Kd [3]
1 | ACUUGGCCACGUCGACUGAAAUCCUCUUCCUGCAGGGCCAAGUG (ssRNA) [#2-1-18 full] | no binding | no binding |  | 
2 | ACUUGGCCACGUCGACUGAAAUCCUCUUCCUGCAGGGCCAAGUG (ssRNA, 2'-F on pyrimidines, 2'-OMe on purines) [#2-1-18-2'-F-O] |  |  | binds | 
3 | ACUUGGCCAAUUACCGUAGUUUUUGUAGUCUGCAGGGCCAAGUG (ssRNA) [#5-2-15 full] | no binding | no binding |  | 22.6 nM
4 | ACUUGGCCAAUUACCGUAGUUUUUGUAGUCUGCAGGGCCAAGUG (ssRNA, 2'-F on pyrimidines, 2'-OMe on purines) [#5-2-15-2'-F-O] |  |  | binds | 
